Patent publication EP1722229B1

Columns and labels:
protein C (PC) [1] = biological target: protein C (PC) (UniProt P04070); experiment: derived from the shift of the Km of PC activation by thrombin on EA.hy926 endothelial cells with 2 µM rhsEPCR
protein C (PC) [2] = biological target: protein C (PC) (UniProt P04070); experiment: cell-based or functional assay

Sequence of protein C (PC) (P04070 43-461): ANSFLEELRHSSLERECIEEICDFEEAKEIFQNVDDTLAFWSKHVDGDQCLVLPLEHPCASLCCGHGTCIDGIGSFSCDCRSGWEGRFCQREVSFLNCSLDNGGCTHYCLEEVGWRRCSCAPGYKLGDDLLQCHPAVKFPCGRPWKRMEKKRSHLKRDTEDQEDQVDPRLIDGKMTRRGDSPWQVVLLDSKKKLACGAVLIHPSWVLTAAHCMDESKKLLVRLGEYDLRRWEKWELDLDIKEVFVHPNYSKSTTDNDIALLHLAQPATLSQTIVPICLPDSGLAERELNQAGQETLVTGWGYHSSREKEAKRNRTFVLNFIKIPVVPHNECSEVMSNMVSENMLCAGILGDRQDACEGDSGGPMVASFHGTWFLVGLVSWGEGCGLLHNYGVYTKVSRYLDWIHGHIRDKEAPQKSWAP

What does the source list for “recombinant human soluble EPCR (rhsEPCR) (receptor)”?
Ki (protein C (PC) [1]): 0.07 µM; Km of PC activation by thrombin on the surface of endothelial cells in the presence of rhsEPCR 2 µM (protein C (PC) [2]): 1 µM
